# No end group written: not given here.
# T1: Hsp16.3, 16 kDa alpha-crystallin like heat shock protein of Mycobacterium tuberculosis, recombinant … (Mycobacterium tuberculosis, UniProt P9WMK1 1-144)
# T1 construct: also called M. tuberculosis Acr; not shown: pQE-8 vector-derived residues flanking the 6xHis tag
# T1 sequence: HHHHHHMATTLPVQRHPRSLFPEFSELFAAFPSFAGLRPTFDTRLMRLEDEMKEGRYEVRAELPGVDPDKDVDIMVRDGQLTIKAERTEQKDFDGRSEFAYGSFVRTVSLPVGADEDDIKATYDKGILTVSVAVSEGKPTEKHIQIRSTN
# B1: M13 phage clone displaying peptide Seq ID 21 (Tyr-Pro-His-His-Phe-Lys-His-Arg-His-Ile-Pro-Ile), from Ph.D.-12 library (peptide)
# peptide: YPHHFKHRHIPI
# modifications: also: displayed on M13 phage, fused to coat protein
# notes: Tested as whole phage particles in reverse phage ELISA; not shown: M13 coat protein to which the peptide is fused, and the spacer to it
# Target: T1, Hsp16.3, 16 kDa alpha-crystallin like …
# Test: reverse phage ELISA on coated Hsp16.3, anti-M13-HRP, A405
binder,measurement,value
B1,fold binding over non-specific control BSA,~3 fold

# Reference: patent US20070037211A1 (COUNCIL OF SCIENTIFIC AND INDUSTRIAL RESEARCH CSIR, published 2007)
